In patent publication US20250277022A1 (STAIDSON BEIJING BIOPHARMACEUTICALS, published 2025):
Like-named read-outs stand apart in the source and are kept apart here.

T1: human IL-7 (human, UniProt P13232 26-177)
T1 construct: also called TSLP homologous protein IL-7
T1 sequence (looked up): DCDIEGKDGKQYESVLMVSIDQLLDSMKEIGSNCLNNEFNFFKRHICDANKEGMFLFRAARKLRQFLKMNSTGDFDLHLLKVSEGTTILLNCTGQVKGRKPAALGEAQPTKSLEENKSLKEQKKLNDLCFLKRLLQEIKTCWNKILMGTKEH


Experiments:
human IL-7 = target: T1, human IL-7; test: ELISA on human IL-7
human TSLP [1] = target: T2, human TSLP (human, UniProt Q969D9 29-159); test: ELISA, plate coated with human TSLP, test antibodies as human IgG1
T2 construct: used biotinylated in some assays; also called hTSLP; recombinant human TSLP
T2 sequence (Q969D9 29-159 R127A/R130S limits assumed): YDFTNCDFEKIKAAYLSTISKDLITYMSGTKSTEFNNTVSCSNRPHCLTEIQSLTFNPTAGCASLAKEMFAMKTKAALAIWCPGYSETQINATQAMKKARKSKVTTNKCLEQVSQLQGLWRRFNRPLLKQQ
Procedure: (§1) ELISA Screening: Monoclonal scFv antibodies were selected and subjected to ligand binding assays. The first assay was designed to identify scFv antibodies that bound human TSLP and/or cynomolgus TSLP. Briefly, a 96-well plate was coated with human TSLP or cynomolgus TSLP in PBS at 0.1 μg/well and left overnight at 4° C. Before loading the scFv antibodies, the plates were washed with TBST, blocked for 1-2 hours at 37° C. using 5% milk and washed again with TBST. Each scFv sample was first diluted to 40 μg/mL, and 150 μL was added to the first row of wells. The 40 μg/mL scFv samples were then serially diluted at a 1:3 ratio and added to the remaining wells. After incubating for an hour at 37° C., followed by washing with TBST for 6 times, 100 μl of the secondary antibody (HRP labeled mouse anti-flag (1:2500)) was added to each well. After incubation for an hour under 37° C., the plate was washed for 3 times using TBST. TMB was then added at 100 μL/well and incubated for 10-20 minutes at 37° C. 2 M H₂SO₄ was used to stop the reaction. The ELISA results (OD405) were then analyzed and the binding curves were generated by PRISM.

human TSLP [2] = target: T2, human TSLP; test: cell-based or functional assay
TSLP-His = target: T3, TSLP-His (human, UniProt Q969D9 29-159, limits assumed); test: HTRF competition: blocking of TSLP-his binding to HEK293-Flag-hTSLPR-IL7Ra cells, IgG1
T3 construct: also called his-tagged TSLP; not shown: His-tag
T3 sequence (Q969D9 29-159 R127A/R130S limits assumed): as above

human TSLP [3] = target: T2, human TSLP; test: cell-based or functional assay; remark: listed apart in the source
cynomolgus monkey TSLP [4] = target: T4, cynomolgus monkey TSLP (cynomolgus monkey, UniProt A0A7N9CAT7 29-159); test: ELISA, plate coated with cynomolgus monkey TSLP, test antibodies as human IgG1
T4 construct: also called cynomolgus TSLP; recombinant cynomolgus monkey TSLP
T4 sequence (A0A7N9CAT7 entry or part of it): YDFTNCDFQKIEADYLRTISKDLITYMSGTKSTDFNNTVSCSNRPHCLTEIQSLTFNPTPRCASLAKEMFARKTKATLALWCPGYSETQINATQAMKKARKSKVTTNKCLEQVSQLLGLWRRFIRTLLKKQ
Procedure: as §1

human TSLP [5] = target: T2, human TSLP; test: cell-based or functional assay; remark: listed apart in the source
human TSLP [6] = target: T2, human TSLP; test: ELISA, plate coated with human TSLP, test antibodies as human IgG1; remark: listed apart in the source
Procedure: as §1

cynomolgus monkey TSLP [7] = target: T4, cynomolgus monkey TSLP; test: ELISA, plate coated with cynomolgus monkey TSLP, test antibodies as human IgG1; remark: listed apart in the source
Procedure: as §1

cynomolgus monkey TSLP [8] = target: T4, cynomolgus monkey TSLP; test: as above; remark: listed apart in the source
Procedure: as §1

human TSLP [9] = target: T2, human TSLP; test: ELISA, plate coated with human TSLP, test antibodies as human IgG1; remark: listed apart in the source
Procedure: as §1

cynomolgus monkey TSLP [10] = target: T4, cynomolgus monkey TSLP; test: ELISA, plate coated with cynomolgus monkey TSLP, test antibodies as human IgG1; remark: listed apart in the source
Procedure: as §1

human TSLP [11] = target: T2, human TSLP; test: cell-based or functional assay; remark: listed apart in the source

binding result (human IL-7)	IC50, inhibition of TSLP induced proliferation of Ba/F3-TSLPR-IL7Ra cells (CellTiter-Glo) (human TSLP [2]) [µg/mL]	IC50 (TSLP-His) [µg/mL]	IC50, inhibition of human TSLP-induced Stat5 activation (Stat5-luciferase reporter, Ba/F3 cells with hTSLPR and hIL7Ra) (human TSLP [5]) [µg/mL]	EC50 (read off the curve) (human TSLP [6]) [µg/mL]	EC50 (read off the curve) (cynomolgus monkey TSLP [7]) [µg/mL]	further results	Binder
no binding	0.0175	0.229				EC50 (read off the curve) (human TSLP [1]): ~0.09 µg/mL; IC50, inhibition of human TSLP-induced Stat5 activation (Stat5-luciferase reporter, Ba/F3 cells with hTSLPR and hIL7Ra) (human TSLP [3]): 0.00667 µg/mL; EC50 (read off the curve) (cynomolgus monkey TSLP [4]): ~0.7 µg/mL	TSLP-02 (antibody, V domains shown, also called parent antibody TSLP-02) VH: QVQLVQSGAEVKKPGSSVKVSCKASGFTFGSYGINWVRQAPGQGLEWLGVIVPLVGVTIYAEKFQGRVTITADTSTSTAYMELSSLRSEDTAVYYCARGQEYFYWYFDLWGQGTLVTVSS VL: QSALTQPPSASGSPGQSVTISCSGSSSDIGGYNRVSWYQQHPGKAPKLMIYDVSKRPSGVPDRFSGSKSGNTASLTVSGLQAEDEADYYCSSYAGTDTFILFGGGTKLTVL
	0.0651		0.0183	~0.04	~0.3		TSLP-0206 (antibody, V domains shown) VH: QVQLVQSGAEVKKPGSSVKVSCKASGFTFGSYGISWVRQAPGQGLEWLGVIVPLVDVTIYAEKFQGRVTITADTSTSTAYMELSSLRSEDTAVYYCARGQEYFYWYFDLWGQGTLVTVSS VL: QSALTQPPSASGSPGQSVTISCTGTISDIGGYNRVSWYQQHPGKAPKLMIYEVSKRPSGVPDRFSGSKSGNTASLTVSGLQAEDEADYYCSSYAGTDTFVFFGGGTKLTVL
				~0.1	~0.3		TSLP-0208 (antibody, V domains shown) VH: QVQLVQSGAEVKKPGSSVKVSCKASGFTFGSYGISWVRQAPGQGLEWLGVIIPLLGVPNYAEKFQGRVTITADTSTSTAYMELSSLRSEDTAVYYCARGAEYFYWYFDLWGQGTLVTVSS VL: QSALTQPPSASGSPGQSVTISCTGSNSDIGGYNRVSWYQQHPGKAPKLMIYEISKRPSGVPDRFSGSKSGNTASLTVSGLQAEDEADYYCSSYAGTDTFVLFGGGTKLTVL
	0.284		0.0421	~0.04	~0.3		TSLP-0205 (antibody, V domains shown) VH: QVQLVQSGAEVKKPGSSVKVSCKASGFTFGSYGINWVRQAPGQGLEWLGVIVPLVGVTIYAEKFQGRVTITADTSTSTAYMELSSLRSEDTAVYYCARGQEYFYWYFDLWGQGTLVTVSS VL: QSALTQPPSASGSPGQSVTISCTGTTSDIGGYNRVSWYQQHPGKAPKLMIYEVSKRPSGVPDRFSGSKSGNTASLTVSGLQAEDEADYYCSSYAGTDTFAIFGGGTKLTVL
	0.217		0.0417			EC50 (read off the curve) (cynomolgus monkey TSLP [8]): ~2 µg/mL	TSLP-0301 (antibody, V domains shown) VH: EVQLVESGGGLVQPGGSLRLSCAASGFTFSNYDMTWVRQAPGKGLEWVSSITFASSYIYYADSVKGRFTISRDNAKNSLSLQMNSLRAEDTAVYYCTRGGGAYYGGSLDVWGQGVLVTVSS VL: DIVMTQTPLSLSVTPGEPASISCRSSQSLLHSNEYTYLHWYLQKPGQSPQLLIYLVSHRASGVPDRFSGSGSDTDFTLKISRVEAEDVGVYYCEQTLQTPFTFGGGTKVEIK
no binding		0.379				EC50 (read off the curve) (human TSLP [9]): ~0.04 µg/mL; EC50 (read off the curve) (cynomolgus monkey TSLP [10]): ~0.7 µg/mL; IC50, inhibition of human TSLP-induced Stat5 activation (Stat5-luciferase reporter, Ba/F3 cells with hTSLPR and hIL7Ra) (human TSLP [11]): 0.0129 µg/mL	TSLP-0103 (antibody, V domains shown) VH: QVQLQESGPGLVKPSETLSLTCTVSGYSISSGYGWSWIRQPPGKGLEWIGYISYYGSISYNPSLKSRVTISRDTSKNQFSLKLSSVTAADTAVYYCARTNLLYFDSWGQGTLVTVSS VL: not shown
